According to patent publication US20230331809A1 (Zymeworks, published 2023):
Like-named read-outs stand apart in the source and are kept apart here.

Columns and labels:
[1] = molecular target: T1, CD3 (Cluster of Differentiation 3) on Jurkat cells and on pan T cells (human, UniProt P07766 23-207); assay: cell ELISA on Jurkat cells (CD3), OD450
T1 construct: whole, on cells

[2] = molecular target: T1, CD3 (Cluster of Differentiation 3) on …; assay: cell ELISA on Jurkat cells (CD3), OD450; remark: listed apart in the source
[3] = molecular target: T1, CD3 (Cluster of Differentiation 3) on …; assay: flow cytometry on pan T cells (CD3), MFI
[4] = molecular target: T1, CD3 (Cluster of Differentiation 3) on …; assay: flow cytometry on human pan T cells, uPa-treated sample
[5] = molecular target: T2, PD-L1 (Programmed death-ligand 1) on cells (UniProt Q9NZQ7 19-290); assay: flow cytometry on PD-L1 transfected CHO-S cells, uPa-treated sample
T2 construct: whole, on cells

[6] = molecular target: T1, CD3 (Cluster of Differentiation 3) on …; assay: cell ELISA on Jurkat cells (CD3), OD450; EC50 relative to v30421
[7] = molecular target: T1, CD3 (Cluster of Differentiation 3) on …; assay: as above; remark: listed apart in the source
[8] = molecular target: T2, PD-L1 (Programmed death-ligand 1) on …; assay: flow cytometry on PD-L1 transfected CHO-S cells, MFI; # Bmax constrained to value of v31929
[9] = molecular target: T3, PD-1 (Programmed Cell Death Protein 1) on cells (UniProt Q15116 25-288); assay: flow cytometry on PD-1 transfected CHO-S cells, uPa-treated sample
T3 construct: whole, on cells

[10] = molecular target: T3, PD-1 (Programmed Cell Death Protein 1) …; assay: flow cytometry on PD-1 transfected CHO-S cells, MFI; # Bmax constrained (footnote prints: to value of v31929)
[11] = molecular target: T3, PD-1 (Programmed Cell Death Protein 1) …; assay: flow cytometry on PD-1 transfected CHO-S cells, MFI
[12] = molecular target: T3, PD-1 (Programmed Cell Death Protein 1) …; assay: flow cytometry on PD-1 transfected CHO-S cells, MFI; reference sample
[13] = molecular target: T3, PD-1 (Programmed Cell Death Protein 1) …; assay: flow cytometry on PD-1 transfected CHO-S cells (direct binding; the filing prints IC50)
[14] = molecular target: T2, PD-L1 (Programmed death-ligand 1) on …; assay: cell-based or functional assay
[15] = molecular target: T1, CD3 (Cluster of Differentiation 3) on …; assay: flow cytometry on human pan T cells
[16] = molecular target: T1, CD3 (Cluster of Differentiation 3) on …; assay: flow cytometry on pan T cells (CD3), MFI; remark: listed apart in the source
[17] = molecular target: T2, PD-L1 (Programmed death-ligand 1) on …; assay: flow cytometry on PD-L1 transfected CHO-S cells, MFI
[18] = molecular target: T1, CD3 (Cluster of Differentiation 3) on …; assay: flow cytometry on human pan T cells, separate experiment (FIG. 32)
[19] = molecular target: T2, PD-L1 (Programmed death-ligand 1) on …; assay: flow cytometry on PD-L1 transfected CHO-S cells, MFI; reference sample
[20] = molecular target: T2, PD-L1 (Programmed death-ligand 1) on …; assay: flow cytometry on PD-L1 transfected CHO-S cells (direct binding; the filing prints IC50)
[21] = molecular target: T1, CD3 (Cluster of Differentiation 3) on …; assay: cell ELISA on CD3-bearing Jurkat cells, sample without uPa
[22] = molecular target: T1, CD3 (Cluster of Differentiation 3) on …; assay: cell-based or functional assay
[23] = molecular target: T1, CD3 (Cluster of Differentiation 3) on …; assay: flow cytometry on human pan T cells, sample without uPa
[24] = molecular target: T2, PD-L1 (Programmed death-ligand 1) on …; assay: flow cytometry on PD-L1 transfected CHO-S cells, MFI; * poor fit

B1: Variant 30430 treated with uPa (+uPa): PD-L1 moiety cleaved from the light chain, HA PD-1 left on the heavy chain (bispecific antibody)
chain 1: not shown
chain 2: SANADIQMTQSPSSLSASVGDRVTMTCSASSSVSYMNWYQQKPGKAPKRWIYDSSKLASGVPARFSGSGSGTDYTLTISSLQPEDFATYYCQQWSRNPPTFGGGTKLQITRTVAAPSVFIFPPSDEQLKSGTASVVCLLNNFYPREAKVQWKVDNALQSGNSQESVTEQDSKDSTYSLSSTLTLSKADYEKHKVYACEVTHQGLSSPVTKSFNRGEC
chain 3: not shown
With B1 the EC50 [1] was 6.7 nM, the EC50 [2] was 6.7 nM and the EC50 [3] was 67 nM. For the same binder, the “fold of the unmasked control after uPa treatment” value [4] was 29 fold, the “fold of the one-sided mask control 31929” value [5] was 53 fold and the “Fold wrt WT” value [6] was 5.5 fold. For the same binder, the “Fold wrt WT” value [7] was 5.5 fold and the EC50 [8] was 18 nM.

B2: Variant 30436 treated with uPa (+uPa): PD-1 moiety cleaved from the heavy chain, HA PD-L1 left on the light chain (bispecific antibody)
heavy: not shown
light: AFTVTVPKDLYVVEYGSNMTIECKFPVEKQLDLAALQVFWMMEDKNIIQFVHGEEDLKVQHSSYRQRARLLKDQLSLGNAALQITDVKLQDAGVYTCLIAYKGADYKRITVKVNAEAAAKEAAAKDIQMTQSPSSLSASVGDRVTMTCSASSSVSYMNWYQQKPGKAPKRWIYDSSKLASGVPARFSGSGSGTDYTLTISSLQPEDFATYYCQQWSRNPPTFGGGTKLQITRTVAAPSVFIFPPSDEQLKSGTASVVCLLNNFYPREAKVQWKVDNALQSGNSQESVTEQDSKDSTYSLSSTLTLSKADYEKHKVYACEVTHQGLSSPVTKSFNRGEC
chain: not shown
B2 was tested, and the EC50 [1] was 6.2 nM, the “fold of the one sided mask control 31931” value [9] was 12 fold and the “Fold wrt WT” value [6] was 5.1 fold. For the same binder, the EC50 [10] was 67 nM.

B3: Variant 31931: Half-masked CD3 × Her2 Fab × scFv Fc, HA PD-L1 attached to LC (bispecific antibody, human IgG1, kappa, L234A L235A)
heavy: not shown
light: AFTVTVPKDLYVVEYGSNMTIECKFPVEKQLDLAALQVFWMMEDKNIIQFVHGEEDLKVQHSSYRQRARLLKDQLSLGNAALQITDVKLQDAGVYTCLIAYKGADYKRITVKVNAEAAAKEAAAKDIQMTQSPSSLSASVGDRVTMTCSASSSVSYMNWYQQKPGKAPKRWIYDSSKLASGVPARFSGSGSGTDYTLTISSLQPEDFATYYCQQWSRNPPTFGGGTKLQITRTVAAPSVFIFPPSDEQLKSGTASVVCLLNNFYPREAKVQWKVDNALQSGNSQESVTEQDSKDSTYSLSSTLTLSKADYEKHKVYACEVTHQGLSSPVTKSFNRGEC
chain: not shown
With B3 the EC50 [1] was 5.3 nM, the EC50 [11] was 5.8 nM and the “Fold wrt WT” value [6] was 4.4 fold. The “Fold wrt v31931” value [12] was 1 fold and the IC50 [13] was 6 nM.

B4: Variant 31929: Half-masked CD3 × Her2 Fab × scFv Fc, HA PD-1 attached to HC (bispecific antibody, human IgG1, kappa, L234A L235A)
heavy: not shown
light: DIQMTQSPSSLSASVGDRVTMTCSASSSVSYMNWYQQKPGKAPKRWIYDSSKLASGVPARFSGSGSGTDYTLTISSLQPEDFATYYCQQWSRNPPTFGGGTKLQITRTVAAPSVFIFPPSDEQLKSGTASVVCLLNNFYPREAKVQWKVDNALQSGNSQESVTEQDSKDSTYSLSSTLTLSKADYEKHKVYACEVTHQGLSSPVTKSFNRGEC
chain: not shown
notes: also called v31929
With B4 the “TDCC potency on JIMT-1 target cells, fold EC50 vs unmasked v30421” value [14] was 0.2 fold, the “fold reduction in binding vs unmasked control” value [15] was 14 fold and the EC50 [1] was 4.2 nM. For the same binder, the EC50 [3] was 32 nM, the EC50 [16] was 11 nM and the “EC50 (read off the curve)” value [17] was about 0.3 nM. For the same binder, the “fold reduction in binding vs unmasked control” value [18] was 5 fold, the “Fold wrt WT” value [6] was 3.5 fold and the “Fold wrt v31929” value [19] was 1 fold. It also gave an IC50 [20] of 0.3 nM.

B5: Variant 30444: WT CTLA4:WT CD80 masked CD3 × Her2 Fab × scFv Fc, CTLA4 cleavable (not treated with uPa) (bispecific antibody, human IgG1, kappa, L234A L235A)
heavy: not shown
light: MHVAQPAVVLASSRGIASFVCEYASPGKATEVRVTVLRQADSQVTEVCAATYMMGNELTFLDDSICTGTSSGNQVNLTIQGLRAMDTGLYICKVELMYPPPYYLGIGNGTQIYVIDPEEAAAKEAAAKMSGRSANADIQMTQSPSSLSASVGDRVTMTCSASSSVSYMNWYQQKPGKAPKRWIYDSSKLASGVPARFSGSGSGTDYTLTISSLQPEDFATYYCQQWSRNPPTFGGGTKLQITRTVAAPSVFIFPPSDEQLKSGTASVVCLLNNFYPREAKVQWKVDNALQSGNSQESVTEQDSKDSTYSLSSTLTLSKADYEKHKVYACEVTHQGLSSPVTKSFNRGEC
chain: not shown
notes: also called v30444
B5 was tested, and the EC50 [2] was 100 nM, the “fold decrease of target binding” value [21] was about 80 fold and the “Fold wrt WT” value [7] was 83 fold.

B6: Variant 30430: HA PD-1:WT PD-L1 masked CD3 × Her2 Fab × scFv Fc, PD-L1 with a cleavable linker (not treated with uPa) (bispecific antibody)
chain 1: not shown
chain 2: AFTVTVPKDLYVVEYGSNMTIECKFPVEKQLDLAALIVYWEMEDKNIIQFVHGEEDLKVQHSSYRQRARLLKDQLSLGNAALQITDVKLQDAGVYRCMISYGGADYKRITVKVNAMSGRSANADIQMTQSPSSLSASVGDRVTMTCSASSSVSYMNWYQQKPGKAPKRWIYDSSKLASGVPARFSGSGSGTDYTLTISSLQPEDFATYYCQQWSRNPPTFGGGTKLQITRTVAAPSVFIFPPSDEQLKSGTASVVCLLNNFYPREAKVQWKVDNALQSGNSQESVTEQDSKDSTYSLSSTLTLSKADYEKHKVYACEVTHQGLSSPVTKSFNRGEC
chain 3: not shown
With B6 the “TDCC potency (JIMT-1 cells, pan T cells), fold decrease vs unmasked 30421” value [22] was 5800 fold, the EC50 [1] was 42 nM and the EC50 [2] was 42 nM. The EC50 [3] was over 100 nM, the “fold reduced binding vs unmasked control (30421)” value [23] was over 43 fold and the “Fold wrt WT” value [6] was 35 fold. For the same binder, the EC50 [24] was over 200 nM, the “Fold wrt v31929” value [24] was over 570 fold and the “Fold wrt WT” value [7] was 35 fold.
